Values belong to the molecule of their own block, whether it stands above or below them.
Assays:
RET (Homo sapiens) = RET (Homo sapiens) (UniProt P07949); conditions: cited from earlier work
[1] = molecular target: T1, ectodomain of RET protein (ecRET; R&D Systems, catalog no. 1168-CR-050/CF) (UniProt P07949 29-635); assay: SPR; Biacore; ecRET amine-coupled to a CM5 chip at 4000 RU; GAS1 series 2-32 uM injected at 20 ul/min for 2 min; 10 mM Hepes pH 7.4, 150 mM NaCl, 1 mM CaCl2, 0.01% Triton X-100; Kd from equilibrium responses (Req), two independent experiments; conditions: both partners purified
T1 construct: Rearranged during transformation (RET) receptor tyrosine kinase, ectodomain; also called RET receptor; extracellular part of RET; source: bought: R&D Systems (catalog no. 1168-CR-050/CF)
T1 sequence (P07949 29-635): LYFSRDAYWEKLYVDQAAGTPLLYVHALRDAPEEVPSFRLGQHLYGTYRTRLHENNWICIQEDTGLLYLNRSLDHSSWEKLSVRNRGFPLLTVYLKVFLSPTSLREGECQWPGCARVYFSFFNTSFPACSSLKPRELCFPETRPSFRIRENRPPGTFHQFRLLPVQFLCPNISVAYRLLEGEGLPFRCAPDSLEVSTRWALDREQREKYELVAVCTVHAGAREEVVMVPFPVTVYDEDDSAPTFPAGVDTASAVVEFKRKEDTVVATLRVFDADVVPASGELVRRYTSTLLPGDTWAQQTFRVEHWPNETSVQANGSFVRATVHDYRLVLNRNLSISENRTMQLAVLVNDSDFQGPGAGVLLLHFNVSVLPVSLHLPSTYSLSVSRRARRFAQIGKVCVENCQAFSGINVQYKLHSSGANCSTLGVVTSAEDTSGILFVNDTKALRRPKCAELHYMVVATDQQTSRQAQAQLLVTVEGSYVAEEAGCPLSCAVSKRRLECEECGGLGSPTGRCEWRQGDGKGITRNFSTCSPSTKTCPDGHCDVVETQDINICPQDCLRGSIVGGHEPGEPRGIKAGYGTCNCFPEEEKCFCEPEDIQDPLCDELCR

Sequence of RET (Homo sapiens) (P07949 29-635): as above

Molecule: GFRα1-GDNF (from UniProt P56159)
- Kd (RET (Homo sapiens)): 0.0002 µM

- Kd [1]: 12.2 µM
B1: human growth arrest specific-1 (GAS1), soluble form without the GPI-anchor, amino acids 39-317 (domain or fragment, UniProt P54826 39-317, looked up)
chain: GLAHGRRLICWQALLQCQGEPECSYAYNQYAEACAPVLAQHGGGDAPGAAAAAFPASAASFSSRWRCPSHCISALIQLNHTRRGPALEDCDCAQDENCKSTKRAIEPCLPRTSGGGAGGPGAGGVMGCTEARRRCDRDSRCNLALSRYLTYCGKVFNGLRCTDECRTVIEDMLAMPKAALLNDCVCDGLERPICESVKENMARLCFGAELGNGPGSSGSDGGLDDYYDEDYDDEQRTGGAGGEQPLDDDDGVPHPPRPGSGAAASGGRGDLPYGPGRRS
modifications: glycosylated: approximately one N-glycan added in the insect cells (N-glycosylation site predicted at Asn117)
notes: secreted with the honey bee mellitin signal of the vector pK509.3; after thrombin cleavage Gly-Ser of the site probably remains at the N-terminus (surmise); Theoretical mass without glycan printed as 29.0 kDa; also called recombinant human GAS1; not shown: FLAG, N-terminal, cleaved; His6, N-terminal, cleaved
